# From paper PMC3936608 (Pain, 2013)
# B1: Rat artemin (113 amino acids) (ligand, UniProt Q6AYE8 112-224, looked up)
# chain: AGTRSSRARATDARGCRLRSQLVPVSALGLGHSSDELIRFRFCSGSCRRARSPHDLSLASLLDAGALRSPPGSRPISQPCCRPTRYEAVSFMDVNSTWRTVDHLSATACGCLG
# Target: the molecule itself
# Assay: SDS-PAGE + SEC
protein,measurement,value
B1,stoichiometry N,2
